{"source": "patent US20190284297A1", "about": "(NOVIMMUNE, published 2019)", "binders": {"B1": {"name": "IgG 1D8 (antibody, V domains shown)", "VH": "EVQLVESGGGLVQPGGSLKLSCAASGFTFNTYAMNWVRQAPGKGLEWVGRIRSKYNNYATYYADSVKDRFTISRDDSKNTAYLQMNSLKTEDTAVYYCVRHGNFGNSYVSWFAYWGQGTLVTVSS", "VL": "QTVVTQEPSLTVSPGGTVTLTCRSSTGAVTTSNYANWFQQKPGQAPRGLIGGTNKRAPGTPARFSGSLLGGKAALTLSGAQPEDEAEYYCALWYDGTWVFGGGTKLTVL", "notes": "also called L3sp34-G1-1-R2-P1_D8"}, "B2": {"name": "IgG 1F8 (antibody, V domains shown)", "VH": "B1 VH", "VL": "B1 VL with T97K", "notes": "also called L3sp34-G1-2-R2-P1_F8"}, "B3": {"name": "IgG 1A4 (antibody, V domains shown)", "VH": "B1 VH", "VL": "B1 VL with D95K, G96Q, T97R", "notes": "also called L3sp34-G1-2-R2-P1_A4"}, "B4": {"name": "IgG 1B6 (antibody, V domains shown)", "VH": "B1 VH", "VL": "B1 VL with D95A, G96N, T97R", "notes": "also called L3sp34-G1-1-R2-P1_B6"}, "B5": {"name": "IgG 1A10 (antibody, V domains shown)", "VH": "B1 VH", "VL": "B1 VL with D95K, T97Y", "notes": "also called L3sp34-G1-2-R2-P1_A10"}, "B6": {"name": "IgG 1A11 (antibody, V domains shown)", "VH": "B1 VH", "VL": "B1 VL with T97W", "notes": "also called L3sp34-G1-1-R2-P1_A11"}}, "note": "Changes are numbered by the printed parent chain.", "data": [{"molecular_target": "T1, human CD3ε on T cells (Jurkat T cell line; CD4+ and CD8+ T cells from healthy human donors) (human, UniProt P07766 23-207)", "T1 construct": "whole, on cells", "T1 sequence (P07766 23-207)": "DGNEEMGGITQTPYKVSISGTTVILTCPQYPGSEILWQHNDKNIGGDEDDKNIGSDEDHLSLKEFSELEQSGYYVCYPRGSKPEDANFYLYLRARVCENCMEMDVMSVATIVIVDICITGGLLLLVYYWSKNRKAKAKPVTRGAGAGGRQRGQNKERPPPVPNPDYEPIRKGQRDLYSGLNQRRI", "assay": "FACS on CD8+ T cells from PBMCs of healthy donors, antibody at 0.1 µg/ml", "method": "(§1) Binding was also evaluated by FACS on different cell populations including T cell lines and natural cell populations derived from healthy blood donors. First, control and antiCD3ε candidates were tested at different concentration on the human T cell line Jurkat. […] Binding to native cell populations was performed by isolating PBMCs from healthy donors and evaluating binding to CD4+ and CD8+ T cells as well as B cells.", "units": {"MFI on CD8+ T cells": "MFI"}, "values": [{"binder": "B1", "MFI on CD8+ T cells": 161}, {"binder": "B2", "MFI on CD8+ T cells": 157}, {"binder": "B3", "MFI on CD8+ T cells": 173}, {"binder": "B4", "MFI on CD8+ T cells": 130}, {"binder": "B5", "MFI on CD8+ T cells": 43}, {"binder": "B6", "MFI on CD8+ T cells": 119}]}, {"molecular_target": "T1, human CD3ε on T cells (Jurkat T cell …)", "assay": "FACS on CD4+ T cells from PBMCs of healthy donors, antibody at 0.1 µg/ml", "method": "as §1", "units": {"MFI on CD4+ T cells": "MFI"}, "values": [{"binder": "B1", "MFI on CD4+ T cells": 286}, {"binder": "B2", "MFI on CD4+ T cells": 284}, {"binder": "B3", "MFI on CD4+ T cells": 284}, {"binder": "B4", "MFI on CD4+ T cells": 231}, {"binder": "B5", "MFI on CD4+ T cells": 96}, {"binder": "B6", "MFI on CD4+ T cells": 205}]}]}
